Measured values from publication doi:10.1101/2024.04.27.591446 (bioRxiv, 2024).

Experiments:
[1] = target: SARS-CoV-2 RBD WU1 (SARS-CoV-2 Wuhan-Hu-1, UniProt P0DTC2); experiment: SPR
[2] = target: SARS-CoV1 Spike (SARS-CoV, strain  (P59594 …, UniProt P59594)); experiment: ELISA

B1: 1301B7 recombinant human monoclonal antibody (hmAb), IgG1 (antibody, V domains shown)
VH: EVQLVESGAEVKNPGSSVKVSCKASEGTFGSYPIIWVRQAPGQGLEWVGGIIPILGTVIYAQKFQGRVTITGDTYAGSAHMELSGLRSEDTAVFYCARGSYDYGDRLLNYTYYAMDVWGPGTTVTVSS
VL: QPGLTQPPSVSGAPGQRVTISCTGSRSNIGAVYAVHWYQHVPGAAPKLLIYENNNRPSGIPDRFSGSKSGTSASLVITGLQAEDEADYLCQSYDRSVGVVFGGGTRLTVL
- binding result [1]: binds
- binding result [2]: binds
